Data: PMC9482650, “Quantitative fragmentomics allow affinity mapping of interactomes” (Nature Communications, 2022)

T1: MPDZ_12, O75970
T1 sequence (O75970 1857-1958, limits assumed, looked up): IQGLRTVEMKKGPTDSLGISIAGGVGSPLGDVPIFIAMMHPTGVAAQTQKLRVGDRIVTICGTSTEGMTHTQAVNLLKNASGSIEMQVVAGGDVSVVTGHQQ

T2: APBA1_2, Q02410
T2 sequence (Q02410 742-832, limits assumed, looked up): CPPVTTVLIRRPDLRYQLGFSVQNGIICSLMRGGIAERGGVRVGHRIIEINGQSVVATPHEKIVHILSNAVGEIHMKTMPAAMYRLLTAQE

T3: PTPN13_1, Q12923
T3 sequence (Q12923 1088-1188, limits assumed, looked up): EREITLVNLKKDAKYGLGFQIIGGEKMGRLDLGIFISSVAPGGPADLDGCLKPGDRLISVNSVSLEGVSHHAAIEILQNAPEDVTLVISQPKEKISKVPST

T4: GRIP1_3, Q9Y3R0
T4 sequence (Q9Y3R0 247-346, limits assumed, looked up): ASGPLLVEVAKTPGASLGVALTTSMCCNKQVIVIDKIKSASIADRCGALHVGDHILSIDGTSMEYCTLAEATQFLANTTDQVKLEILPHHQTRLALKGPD

T5: SNTG2, Q9NY99
T5 sequence (Q9NY99 68-166, limits assumed, looked up): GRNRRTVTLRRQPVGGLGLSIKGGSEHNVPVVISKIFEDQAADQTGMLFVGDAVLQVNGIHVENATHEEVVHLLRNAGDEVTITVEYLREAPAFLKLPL

T6: RHPN1, Q8TCX5
T6 sequence (Q8TCX5 508-602, limits assumed, looked up): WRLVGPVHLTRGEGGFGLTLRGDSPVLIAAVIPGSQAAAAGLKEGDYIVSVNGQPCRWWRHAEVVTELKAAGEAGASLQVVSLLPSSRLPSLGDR

T7: SNTB1, Q13884
T7 sequence (Q13884 107-205, limits assumed, looked up): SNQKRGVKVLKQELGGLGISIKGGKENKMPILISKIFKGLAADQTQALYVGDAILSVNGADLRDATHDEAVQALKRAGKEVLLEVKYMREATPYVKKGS

T8: ARHGEF11, O15085
T8 sequence (O15085 42-136, limits assumed, looked up): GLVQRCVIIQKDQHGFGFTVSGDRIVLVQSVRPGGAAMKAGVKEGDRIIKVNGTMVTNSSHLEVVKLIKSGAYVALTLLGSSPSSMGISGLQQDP

T9: LRRC7, Q96NW7
T9 sequence (Q96NW7 1440-1537, limits assumed, looked up): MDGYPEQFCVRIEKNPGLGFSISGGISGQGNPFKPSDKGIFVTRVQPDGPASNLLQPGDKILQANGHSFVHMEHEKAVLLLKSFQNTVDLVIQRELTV

T10: RADIL, Q96JH8
T10 sequence (Q96JH8 971-1071, limits assumed, looked up): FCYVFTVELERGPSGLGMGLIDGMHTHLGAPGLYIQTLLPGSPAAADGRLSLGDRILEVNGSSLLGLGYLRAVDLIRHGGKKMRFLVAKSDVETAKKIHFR

T11: GRIP1_2, Q9Y3R0
T11 sequence (Q9Y3R0 145-248, limits assumed, looked up): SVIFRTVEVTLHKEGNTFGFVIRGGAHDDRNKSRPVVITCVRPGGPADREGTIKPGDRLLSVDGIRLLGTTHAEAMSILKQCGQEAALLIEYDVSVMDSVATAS

T12: PDZRN3_1, Q9UPQ7
T12 sequence (Q9UPQ7 244-349, limits assumed, looked up): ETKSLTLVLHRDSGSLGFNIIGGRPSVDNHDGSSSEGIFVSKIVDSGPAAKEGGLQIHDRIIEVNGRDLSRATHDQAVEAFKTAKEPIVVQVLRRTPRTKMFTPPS


Key:
Test in all cases: holdup assay
Parameters in all cases: key: below the threshold = too weak to quantify, mostly under pKd 3.1 to 4
Conditions in all cases: plain residues with an end cap or a label only (N-terminal biotin on a linker: ado-ado)
[1] = biological target: T1, MPDZ_12, O75970
[2] = biological target: T2, APBA1_2, Q02410
[3] = biological target: Inadl_4, Q8NI35
[4] = biological target: T3, PTPN13_1, Q12923
[5] = biological target: T4, GRIP1_3, Q9Y3R0
[6] = biological target: T5, SNTG2, Q9NY99
[7] = biological target: MAGI2_3, Q86UL8
[8] = biological target: T6, RHPN1, Q8TCX5
[9] = biological target: T7, SNTB1, Q13884
[10] = biological target: SCRIB_1, Q14160
[11] = biological target: Inadl_10, Q8NI35
[12] = biological target: ARHGEF12, Q9NZN5-2
[13] = biological target: DLG2_2, Q15700
[14] = biological target: NHERF4_2, Q86UT5
[15] = biological target: T8, ARHGEF11, O15085
[16] = biological target: DLG1_1, Q12959
[17] = biological target: T9, LRRC7, Q96NW7
[18] = biological target: PARD3_3, Q8TEW0
[19] = biological target: T10, RADIL, Q96JH8
[20] = biological target: DLG5_1, Q8TDM6
[21] = biological target: MAGI2_5, Q86UL8
[22] = biological target: DLG4_2, P78352
[23] = biological target: T11, GRIP1_2, Q9Y3R0
[24] = biological target: SCRIB_3, Q14160
[25] = biological target: T12, PDZRN3_1, Q9UPQ7
[26] = biological target: CASK, O14936
CASK, O14936, sequence (O14936 487-570): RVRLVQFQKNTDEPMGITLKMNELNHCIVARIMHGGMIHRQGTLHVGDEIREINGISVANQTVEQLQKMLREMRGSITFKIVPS

MAGI2_3, Q86UL8, sequence (Q86UL8 600-682): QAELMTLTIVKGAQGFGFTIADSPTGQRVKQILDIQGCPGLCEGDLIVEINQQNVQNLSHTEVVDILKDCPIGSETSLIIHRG
SCRIB_3, Q14160, sequence (Q14160 999-1103): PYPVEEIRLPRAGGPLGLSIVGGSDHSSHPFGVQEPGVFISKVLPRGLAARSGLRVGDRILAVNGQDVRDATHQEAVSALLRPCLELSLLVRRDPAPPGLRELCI
PARD3_3, Q8TEW0, sequence (Q8TEW0 582-685): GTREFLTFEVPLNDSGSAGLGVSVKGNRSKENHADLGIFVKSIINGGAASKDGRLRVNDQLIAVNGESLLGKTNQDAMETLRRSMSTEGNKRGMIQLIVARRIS
DLG4_2, P78352, sequence (P78352 155-259): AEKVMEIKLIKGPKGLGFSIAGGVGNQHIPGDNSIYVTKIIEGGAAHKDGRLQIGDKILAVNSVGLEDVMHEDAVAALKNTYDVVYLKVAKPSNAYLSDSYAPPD
Inadl_4, Q8NI35, sequence (Q8NI35 547-651): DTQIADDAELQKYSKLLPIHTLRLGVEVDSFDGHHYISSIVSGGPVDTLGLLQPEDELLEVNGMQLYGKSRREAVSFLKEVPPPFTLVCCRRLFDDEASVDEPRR
NHERF4_2, Q86UT5, sequence (Q86UT5 220-308): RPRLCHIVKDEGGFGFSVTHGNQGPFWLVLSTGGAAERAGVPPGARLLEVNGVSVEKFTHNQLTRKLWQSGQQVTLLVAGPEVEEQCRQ
Inadl_10, Q8NI35, sequence (Q8NI35 1673-1763): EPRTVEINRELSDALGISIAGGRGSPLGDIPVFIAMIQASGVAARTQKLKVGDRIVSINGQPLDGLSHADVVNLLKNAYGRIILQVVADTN
DLG2_2, Q15700, sequence (Q15700 189-283): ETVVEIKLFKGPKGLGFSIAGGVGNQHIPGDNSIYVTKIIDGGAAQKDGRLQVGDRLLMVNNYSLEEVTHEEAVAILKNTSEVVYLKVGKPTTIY
ARHGEF12, Q9NZN5-2, sequence (Q9NZN5 other isoform, or with tags, fused parts or gaps): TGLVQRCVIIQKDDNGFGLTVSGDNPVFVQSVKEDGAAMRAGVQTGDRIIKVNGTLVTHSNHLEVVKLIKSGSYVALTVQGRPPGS
DLG5_1, Q8TDM6, sequence (Q8TDM6 617-713): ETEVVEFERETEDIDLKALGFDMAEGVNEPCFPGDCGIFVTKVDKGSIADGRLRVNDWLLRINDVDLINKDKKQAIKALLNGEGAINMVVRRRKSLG
SCRIB_1, Q14160, sequence (Q14160 718-814): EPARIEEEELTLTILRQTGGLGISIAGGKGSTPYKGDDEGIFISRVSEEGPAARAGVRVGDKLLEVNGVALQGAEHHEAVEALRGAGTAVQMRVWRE
MAGI2_5, Q86UL8, sequence (Q86UL8 915-1017): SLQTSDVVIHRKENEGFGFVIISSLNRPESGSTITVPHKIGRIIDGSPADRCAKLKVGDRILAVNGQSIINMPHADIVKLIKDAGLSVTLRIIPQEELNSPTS

| pKd [1] | pKd [2] | pKd [3] | pKd [4] | pKd [5] | pKd [6] | pKd [7] | pKd [8] | pKd [9] | pKd [10] | pKd [11] | pKd [12] | pKd [13] | pKd [14] | pKd [15] | pKd [16] | pKd [17] | pKd [18] | pKd [19] | pKd [20] | Binder | also measured |
| --- | --- | --- | --- | --- | --- | --- | --- | --- | --- | --- | --- | --- | --- | --- | --- | --- | --- | --- | --- | --- | --- |
| 3.53 | 4.8 | below the threshold | below the threshold | below the threshold | below the threshold | 3.64 | below the threshold | below the threshold | below the threshold | below the threshold | below the threshold | below the threshold | 3.52 | 4.36 | below the threshold | below the threshold | 3.51 | 4.44 | below the threshold | QMNQTLPVQV [EPHB3, P54753] | pKd [21]: below the threshold; pKd [22]: 3.66; pKd [23]: 3.58; pKd [24]: 3.48; pKd [25]: 3.51; pKd [26]: below the threshold |
| below the threshold | 3.68 | below the threshold | below the threshold | below the threshold | 4.71 | 3.98 | 4.38 | 5 | 5.2 | below the threshold | 3.47 | 4.72 | below the threshold | 3.55 | 4.69 | 4.61 | below the threshold | 3.67 | below the threshold | PKRSFIESNV [TANC1, Q9C0D5] | pKd [21]: 4.41; pKd [22]: 5.04; pKd [23]: below the threshold; pKd [24]: 5.05; pKd [25]: 3.87; pKd [26]: below the threshold |
| below the threshold | below the threshold | below the threshold | below the threshold | below the threshold | below the threshold | 3.83 | below the threshold | below the threshold | below the threshold | below the threshold | below the threshold | below the threshold | below the threshold | below the threshold | below the threshold | below the threshold | below the threshold | below the threshold | below the threshold | QKNRKAQEDL [CES3, Q6UWW8] | pKd [21]: below the threshold; pKd [22]: below the threshold; pKd [23]: below the threshold; pKd [24]: below the threshold; pKd [25]: below the threshold; pKd [26]: below the threshold |
| below the threshold | below the threshold | below the threshold | below the threshold | below the threshold | below the threshold | below the threshold | 3.53 | below the threshold | below the threshold | below the threshold | 3.53 | below the threshold | below the threshold | 4.07 | below the threshold | below the threshold | 4.98 | 4.02 | below the threshold | DDEDRLVIEI [ZNF831, Q5JPB2] | pKd [21]: below the threshold; pKd [22]: below the threshold; pKd [23]: below the threshold; pKd [24]: 3.48; pKd [25]: below the threshold; pKd [26]: below the threshold |
